In patent US20180237511A1 (Sanofi, published 2018):
Positions count from the first letter of the chain named.

T1: human beta-dystroglycan extracellular domain (soluble) (human, UniProt Q14118 654-749)
T1 construct: extracellular domain; The expression construct of soluble human beta-DG is not described (only the mouse one); also called hBeta-DG; hbeta-DG
T1 sequence (looked up): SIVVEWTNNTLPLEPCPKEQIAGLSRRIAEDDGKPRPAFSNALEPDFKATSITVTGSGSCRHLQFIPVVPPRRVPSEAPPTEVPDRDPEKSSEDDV

T2: human laminin G-like 5 domain of laminin-2 (hLG-5) (human, UniProt P24043 2936-3122, soluble biotinylated protein (Avi tag))
T2 construct: The construct used for the crystal structure with C21 Fab is not described; the same entry is used; also called human LG-5; human LG5; not shown: N-terminal Avi and HPC4 tags
T2 sequence: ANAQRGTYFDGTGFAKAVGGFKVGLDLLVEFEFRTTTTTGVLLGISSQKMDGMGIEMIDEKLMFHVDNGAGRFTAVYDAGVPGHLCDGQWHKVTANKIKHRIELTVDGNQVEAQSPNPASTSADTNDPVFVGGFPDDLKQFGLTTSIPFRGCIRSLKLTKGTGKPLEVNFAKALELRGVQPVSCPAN

T3: human laminin G-like 4 and 5 domains of laminin-2 (hLG-4/5), soluble (human, UniProt P24043 2729-3122, biotinylated in the ELISA of Example 6)
T3 construct: range 2729-3122; also called human LG-4/5; hLG4/LG5; not shown: Avi tag and HPC4 tag left after TEV cleavage of the N-terminal mIgG2a fusion partner
T3 sequence (looked up): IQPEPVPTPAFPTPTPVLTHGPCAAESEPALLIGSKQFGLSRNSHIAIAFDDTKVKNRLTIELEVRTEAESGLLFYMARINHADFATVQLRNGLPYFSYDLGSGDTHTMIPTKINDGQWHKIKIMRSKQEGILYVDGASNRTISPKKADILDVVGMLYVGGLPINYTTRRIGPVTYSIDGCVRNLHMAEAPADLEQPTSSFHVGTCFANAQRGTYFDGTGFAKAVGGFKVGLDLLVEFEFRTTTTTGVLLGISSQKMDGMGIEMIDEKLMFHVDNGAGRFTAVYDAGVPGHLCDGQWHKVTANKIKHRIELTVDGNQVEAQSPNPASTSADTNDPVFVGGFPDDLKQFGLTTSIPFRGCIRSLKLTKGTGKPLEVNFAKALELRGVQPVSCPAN

B1: triAb 3423 (bispecific antibody)
light 1: EIVLTQSPDFLSVTPKEKVTLSCRASQSISNYLHWYQQKSDQSPKLLIKYASQSISGIPSRFSGSGSGTDFTLSINSVEAEDAATYFCQQSKSWPRTFGGGTKLEIKDKTHTEIVLTQSPDFLSVTPKEKVTLTCRASQSISNNLHWYQQKSDQSPKLLIKYASQSISGIPSRFSGSGSGTDFTLTINSVEAEDAATYFCQQSKSWPRTFGGGTKLEIKDKTHTRTVAAPSVFIFPPSDEQLKSGTASVVCLLNNFYPREAKVQWKVDNALQSGNSQESVTEQDSKDSTYSLSSTLTLSKADYEKHKVYACEVTHQGLSSPVTKSFNRGEC
heavy 1: EVQLVESGGGLVKPGGSLRLSCAASGFTFSSYTMSWVRQAPGKGLEWVASISSSGSNTYYPDSVKGRFTISRDNAKNNLYLQMNSLRAEDTALYYCARFDYGSSLDSWGQGTLLTVSSDKTHTEVQLVESGGGLVKPGGSLRLSCAASGFTFSSYTMSWVRQAPGKGLEWVASISSSGSNTYYPDSVKGRFTISRDNAKNNLYLQMNSLRAEDTALYYCARFDYGSSLDSWGQGTLLTVSSDKTHTASTKGPSVFPLAPSSKSTSGGTAALGCLVKDYFPEPVTVSWNSGALTSGVHTFPAVLQSSGLYSLSSVVTVPSSSLGTQTYICNVNHKPSNTKVDKKVEPKSCDKTHTCPPCPAPELLGGPSVFLFPPKPKDTLYITREPEVTCVVVDVSHEDPEVKFNWYVDGVEVHNAKTKPREEQYNNASRVVSVLTVLHQDWLNGKEYKCKVSNKALPAPIEKTISKAKGQPREPQVYTLPPCRDELTKNQVSLWCLVKGFYPSDIAVEWESNGQPENNYKTTPPVLDSDGSFFLYSKLTVDKSRWQQGNVFSCSVMHEALHNHYTQKSLSLSPG
heavy 2: QVQLVQSGAEVVKPGSSVKVSCEASGFTFTDSVITWVRQRPGQGLEWIGEIYPGSGNFYYNEKFQGRVTITADKSTSTAYMELSSLRSEDTAVYFCAMRRSSWGQGTLVTVSSASTKGPSVFPLAPSSKSTSGGTAALGCLVKDYFPEPVTVSWNSGALTSGVHTFPAVLQSSGLYSLSSVVTVPSSSLGTQTYICNVNHKPSNTKVDKKVEPKSCDKTHTCPPCPAPELLGGPSVFLFPPKPKDTLYITREPEVTCVVVDVSHEDPEVKFNWYVDGVEVHNAKTKPREEQYNNASRVVSVLTVLHQDWLNGKEYKCKVSNKALPAPIEKTISKAKGQPREPQVCTLPPSRDELTKNQVSLSCAVKGFYPSDIAVEWESNGQPENNYKTTPPVLDSDGSFFLVSKLTVDKSRWQQGNVFSCSVMHEALHNRFTQKSLSLSPG
light 2: DVVMTQTPLSLSVTPGQPASISCKSSQTIVHSNSKTYLEWYLQKPGQSPQLLIYKVSSRFSGVPDRFSGSGSGTDFTLKISRVEAEDVGVYYCFQGSHVPLTFGQGTKLEIKRTVAAPSVFIFPPSDEQLKSGTASVVCLLNNFYPREAKVQWKVDNALQSGNSQESVTEQDSKDSTYSLSSTLTLSKADYEKHKVYACEVTHQGLSSPVTKSFNRGEC
notes: Trivalent: CODV arm VH1/VL1 C3_Hu10, VH2/VL2 C21_Hu11
B2: triAb 3429 (bispecific antibody)
light 1: B1 light 1 with K16G, S22T, I58V, S74T, N76S, A83F, S142G
heavy 1: B1 heavy 1 with K136Q, S173T, S179D, A198S, N201T, N207S, L236T
heavy 2: B1 heavy 2
light 2: B1 light 2
notes: Trivalent: CODV arm VH1/VL1 C3_Hu11, VH2/VL2 C21_Hu21
B3: triAb 3437 (bispecific antibody)
light 1: B1 light 1 with S22T, S30G, Y32N, S74T, T134S, N144Y, T186S
heavy 1: B1 heavy 1
heavy 2: B1 heavy 2
light 2: B1 light 2
notes: Trivalent: CODV arm VH1/VL1 C21_Hu11, VH2/VL2 C3_Hu11
B4: triAb 3439 (bispecific antibody)
light 1: B1 light 1 with S22T, Y32N, S74T, K128G, N144Y, I170V, N188S, A195F
heavy 1: B1 heavy 1 with K13Q, S50T, S56D, A75S, N78T, N84S, L113T
heavy 2: B1 heavy 2
light 2: B1 light 2
notes: Trivalent: CODV arm VH1/VL1 C21_Hu21, VH2/VL2 C3_Hu10
B5: anti-laminin-2 (anti-LG-5) monoclonal antibody clone AN01 (antibody, V domains shown)
VH: EVQLQQSGPELVKPGASVKMSCKASGYTFTSYNIHWVKQKPGQGLEWIGYINPYNDGTKYSEKFKGKATLTSDRSSSTAYMEVSSLTSEDSAVYYCAIYGNSYWGQGSTLTVSS
VL: DIVMTQAAPSIPVTPGESVSISCRSSKSLLHSNGNTYLYWFLQRPGQSPQRLIYYMSNLDSGVPDRFSGRGSGTDFTLRISRVEAEDVGVYYCMQGLEYPYTFGGGTKLEIK
notes: tested as immobilized mAb
B6: humanized anti-beta-DG antibody AS30SS_Hu6 (antibody, V domains shown)
VH: QVQLVQSGAEVVKPGSSVKVSCEASGFTFTDSVITWVRQRPGQGLEWIGEIYPGSGNFYYNEKFQGRVTITADKSTSTAYMELSSLRSEDTAVYFCAMRRSSWGQGTLVTVSS
VL: DVVMTQTPLSLSVTPGQPASISCKSSQTIVHSNSKTYLEWYLQKPGQSPQLLIYKVSSRFSGVPDRFSGSGSGTDFTLKISRVEAEDVGVYYCFQGSHVPLTFGQGTKLEIK
notes: also called AS30_Hu6; AS30 Hu6
B7: humanized anti-laminin-2 antibody C3_Hu10 (antibody, V domains shown)
VH: EVQLVESGGGLVKPGGSLRLSCAASGFTFSSYTMSWVRQAPGKGLEWVASISSSGSNTYYPDSVKGRFTISRDNAKNNLYLQMNSLRAEDTALYYCARFDYGSSLDSWGQGTLLTVSS
VL: EIVLTQSPDFLSVTPKEKVTLTCRASQSISNNLHWYQQKSDQSPKLLIKYASQSISGIPSRFSGSGSGTDFTLTINSVEAEDAATYFCQQSKSWPRTFGGGTKLEIK
notes: Called monovalent anti-LG4/5 antibody
B8: humanized anti-laminin-2 antibody C21_Hu21 (antibody, V domains shown)
VH: B7 VH with K13Q, S50T, S56D, A75S, N78T, N84S, L113T
VL: B7 VL with K16G, N32Y, I58V, N76S, A83F
notes: as for B7
B9: humanized anti-laminin-2 antibody C21_Hu11 (antibody, V domains shown)
VH: B7 VH
VL: B7 VL with T22S, N32Y, T74S
notes: as for B7
B10: humanized anti-laminin-2 antibody C3_Hu11 (antibody, V domains shown)
VH: B7 VH
VL: B7 VL with S30G
notes: as for B7

How the values were obtained:
[1] = target: T1, human beta-dystroglycan extracellular …; experiment: SPR, antibody on Protein G chip, beta-DG in flow, 1:1 model (table title says laminin-2; paragraph 445 says human beta-DG)
Protocol: (§1) Data was evaluated with a 1:1 binding model using the BIAevaluation software.
(§2) SPR was used as described above to analyze the kinetics of triAb binding to laminin-2 (Table N) or beta-DG (Table O).

[2] = target: T2, human laminin G-like 5 domain of …; experiment: SPR (Biacore) kinetics; mAb immobilized, hLG-5 in flow
[3] = target: T1, human beta-dystroglycan extracellular …; experiment: sequential SPR (Biacore T100): antibody captured on a Protein G chip, 200 nM human LG4/5 for 60 s, then 200 nM human beta-DG for 60 s
Protocol: For sequential dual binding of antigens to trivalent antibodies, a Series S Sensor Protein G chip (GE Healthcare, 29179315) was used with a T100 Biacore. This chip was used to immobilize trivalent or parental antibody to the surface (60 seconds with 5 ug/mL of antibody). After capture, 200 nM of LG4/5 was flowed over the chip for 60 seconds followed by 200 nM of beta-DG for 60 seconds. Binding to the trivalent antibody was observed by the change of mass detected on the chip in relative units (RU).
Additionally, surface plasmon resonance was performed to show sequential binding of the human laminin-2 and beta-DG antigens (FIG. 1C).

[4] = target: T3, human laminin G-like 4 and 5 domains of …; experiment: SPR, antibody on Protein G chip, LG4/5 in flow, 1:1 model (table title says beta-DG; paragraph 445 says human laminin-2)
Protocol: as §1, §2

| Binder | Kd [1] | koff [1] | kon [1] | binding result [3] | also measured |
| --- | --- | --- | --- | --- | --- |
| B1 | 1.6 nM | 0.00433 s⁻¹ | 2.7e+06 M⁻¹ s⁻¹ | – | – |
| B2 | 1.9 nM | 0.00404 s⁻¹ | 2.13e+06 M⁻¹ s⁻¹ | – | – |
| B3 | 1.87 nM | 0.0045 s⁻¹ | 2.41e+06 M⁻¹ s⁻¹ | – | – |
| B4 | 1.3 nM | 0.004 s⁻¹ | 3.07e+06 M⁻¹ s⁻¹ | – | – |
| B5 | – | – | – | – | Kd [2]: 9.24 nM; koff [2]: 0.000915 s⁻¹; kon [2]: 99000 M⁻¹ s⁻¹ |
| B6 | 0.796 nM | 0.00202 s⁻¹ | 2.54e+06 M⁻¹ s⁻¹ | – | – |
| B7 | – | – | – | no binding (tested: 200 nM) | – |
| B8 | – | – | – | no binding (tested: 200 nM) | Kd [4]: 8.99 nM; koff [4]: 0.00144 s⁻¹; kon [4]: 160000 M⁻¹ s⁻¹ |
| B9 | – | – | – | no binding (tested: 200 nM) | – |
| B10 | – | – | – | no binding (tested: 200 nM) | Kd [4]: 9.83 nM; koff [4]: 0.00117 s⁻¹; kon [4]: 119000 M⁻¹ s⁻¹ |
